B1: KLHL14 (parent)
chain: NETGYLSSVECYNLETNEWRYVSS

Variants of: B1
Test: protein stability index of a GFP-peptide fusion (GPS, HEK-293T) (PSI 1-6); higher = more stable
Conditions: c terminus: a fixed tail appended
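Also: lentivirally expressed fusions sorted by FACS into six bins by GFP to DsRed ratio, PSI derived from sequencing read proportions per bin multiplied by bin number.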

Protein stability index: each site, then its substitutions
T16: N 3.52, P 2.89, F 2.71, V 3, S 3.8, Y 2.8, I 2.48, Q 4.16, R 3.17, W 2.05, L 2.63, K 2.96, D 4.07, M 2.66, E 3.83, G 3.83
S8: T 3.27, E 4.43, I 2.29, G 3.76, N 4.16, A 3.34, P 4.21, F 2.1, H 2.17, Q 3.29, L 2.77, Y 1.67, M 2.73, D 4.02, R 2.35, K 2.85, V 2.77, C 2.55
R20: D 4.12, E 4.04, L 1.88, W 2.41, Q 3.49, H 2.83, I 2.3, F 2.2, Y 2.18, A 2.95, S 3.04, G 3.06, C 2.43, T 2.69, P 3.35, V 2.32, K 3.6, N 3.51, M 2.65
E15: S 2.08, P 2.54, Q 2.58, C 2.34, M 2.63, K 3.66, H 2.42, V 2.25, D 3.41, N 3.03, Y 2.15, G 3.18, T 2.02, A 1.94, I 1.84, R 2.39, L 2.61, W 2.13, F 1.8
V22: D 3.8, M 2.95, F 2.14, W 2.22, N 3.27, P 3.16, I 2.47, R 3.2, T 3.01, E 4.18, A 3.42, L 2.81, H 2.18, C 2.29, S 2.71, K 3.25, Y 3.02, Q 3.73, G 3.85
N17: S 4.14, G 3.67, M 3.19, D 4.02, P 3.42, V 3.06, R 3.01, Y 2.64, A 2.92, E 4.2, C 2.84, W 2.25, Q 4.06, I 2.31, L 3.66, H 3.31, K 3.72, T 3.01, F 2.9
E10: V 1.71, S 1.94, N 2.48, C 2.46, I 1.69, L 1.45, F 1.64, P 2.83, A 2.72, K 3.05, W 1.75, R 3.23, Q 3.42, H 2.22, Y 1.58, M 1.86, D 3.18, T 2.98, G 2.72
V9: Q 3.85, C 3.35, G 3.88, M 3.62, W 2.43, K 2.96, N 4.11, T 3.4, D 4.39, R 3.41, E 4, H 3.88, F 2.67, A 4.07, S 3.87, Y 3.14, I 3.16, L 3.12, P 3.84
S7: T 3.45, F 1.64, P 3.88, N 3.89, K 2.96, V 2.45, Q 3.86, A 3.42, C 2.52, H 2.8, M 2.48, R 3.64, W 2.11, L 2.24, Y 2.26, E 4.08, G 3.47, D 3.89, I 2.46
